From patent US20240209080A1, “FOLR1 BINDING AGENTS, CONJUGATES THEREOF AND METHODS OF USING THE SAME” (PROFOUNDBIO US CO., priority 2021, published 2024)

Test system: Hela cells
Test: Flow cytometry binding to Hela cells
Conditions: transfection supernatant, FIG. 1
Experimental: The binding activity of the antibodies to Hela cells (ATCC® CCL-2, provided by COBIOER) and to RPTEC/TERT1 cells (ATCC® CRL-4031, provided by COBIOER) was tested by flow cytometry using the transfection supernatants. Briefly, target cells were digested with 0.02% EDTA-2Na, centrifuged at 1500 rpm for 3 mins, and resuspended with PBS. After counting, the cells were added to a 1.5 ml centrifuge tube with 1×10^6 cells per tube, centrifuged at 1500 rpm for 5 minutes, and the supernatant was discarded. Then all the operations were carried out on an ice bath. 100 μL of transfection supernatant was added to each 1.5 ml centrifuge tube. Blank cells, blank cells plus secondary antibody, medium and HEK293 supernatant were set up as the controls. The reaction was performed on an ice bath for 1 hour. Then the cells were pelleted and washed twice with PBS. The secondary antibody, goat anti-Human IgG (PE, abcam, ab98596), was diluted (1:200) and added using 100 μL per tube. The reaction was performed on an ice bath for 1 hour in the dark. The cells were pelleted again and washed twice with PBS, resuspended in 300 μL PBS, and FL2 fluorescence readings were measured by cytometry. The results were analyzed by FlowJoTM10 software.
Anti-FOLR1 antibody binding to Hela and RPTEC/TERT1 cells was tested by FACS. The study was carried out as described above. […]

B1: F40: fully human anti-FOLR1 antibody (IgG1), VH SEQ ID NO:9, VL SEQ ID NO:10 (antibody, V domains shown)
VH: EVQLLESGGGVVQPGRSLRLSCAASGFTFSSYAMHWVRQAPGKGLEWVAVISYDGSNKYYADSVKGRFIISRDNSKNTVYLQMNSLRAEDTAVYYCARPTYVFTYTGSSFDYWGQGTQVTVSS
VL: DIQVTQSPSSLSASLGDTVSITCRASRGLTDSVAWYQQKPGQAPKLLIYAASTLQSGVPSRFGGSGSGSYFTLTITSLQPEDVATYYCQNYKSAPWTFGQGTKVEIK
modifications: Synthetic F40 VH amino acid sequence; Synthetic F40 VL amino acid sequence
Hela cell binding (in words): weakly positive
